The text below walks through data of patent US20030022837A1 (Stanford University, published 2003).

This experiment addresses T1, His-Cdc20 (baculovirus-expressed human Cdc20) (human, UniProt Q12834 1-499).
T1 construct: Also used for the Cdc20 baculovirus of the SF9 co-infection; also called purified baculovirus-expressed Cdc20; Baculovirus-expressed Cdc20; not shown: His tag
Kind of experiment: SF9 cells co-infected with Emi1 and Cdc20 baculoviruses, anti-Emi1 immunoprecipitation, Cdc20 immunoblot.

T1 sequence (Q12834 whole entry): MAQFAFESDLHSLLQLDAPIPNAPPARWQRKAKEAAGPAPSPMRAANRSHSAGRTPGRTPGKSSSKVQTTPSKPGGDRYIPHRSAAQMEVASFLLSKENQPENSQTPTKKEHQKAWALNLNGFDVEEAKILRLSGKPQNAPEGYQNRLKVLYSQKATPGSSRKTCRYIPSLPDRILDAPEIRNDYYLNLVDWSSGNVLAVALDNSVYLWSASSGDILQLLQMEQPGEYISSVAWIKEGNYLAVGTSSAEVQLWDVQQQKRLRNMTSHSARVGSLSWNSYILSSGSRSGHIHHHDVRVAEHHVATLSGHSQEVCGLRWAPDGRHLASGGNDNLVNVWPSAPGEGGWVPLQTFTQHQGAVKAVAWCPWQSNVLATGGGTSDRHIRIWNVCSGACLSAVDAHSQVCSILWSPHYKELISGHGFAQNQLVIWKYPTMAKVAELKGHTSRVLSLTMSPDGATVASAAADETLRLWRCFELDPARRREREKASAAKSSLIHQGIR

B1: Xenopus Emi1 (Early Mitotic Inhibitor 1), full-length wild type (other)
chain: MMCGFASNQSPKKLSSKKSSATNVHLEISPVKHHPPCKVYENVQGSCLDSAICTTVAKCADLTDDLPVHNKENLLHRLNDLETNSYEEYSALQDSGYSSILQNDSPCQDETDRKVSDIQVRETPKNFMSYQRPFHTLSKINLPILRFEEAVCSTLKKMRKTNKKIDWNAVDVVCGGNYGLEHLIGKSMGLERFDILAELFHRDFKHLLTKILRHLSAMDLINVISVSTTWRKLLQKDNWAYNAYKLGCKELCEKRAKVSSHTATRDESLCRVPLASVQKVAASSLCTSKKQSKNKNGGLSCNRLAEFIEVAQTLKNDQSLKVCVDCGSPAKHDPCLHRAICTRESCKLDFCTRCSCKYHFSKSCLMSKPGSYRIPSEPLPGSKKSKQNLRRL
notes: 392 residues; also called xEmi1; Emi1p
Take B1: the binding result is recorded as “binds”.
